Drawing on patent US20100298542A1, this text covers Kd, koff and kon for 1 substance.

Assay [1] deals with soluble human FcRn (complex of FcRn extracellular domain and β2-microglobulin) (human) (UniProt P55899). The assay can be described thus: SPR (Biacore 3000), antibody captured on Protein L or anti-human kappa antibody, human FcRn as analyte, pH 6.0, steady state affinity. (Surface plasmon resonance follows binding to a sensor surface in real time, without labels.)
The target is the same in assay [2]. Described as above. The source holds these as a separate data set.
For assay [3] the target is unchanged. The assay can be described thus: SPR (Biacore 3000), method of Example 6: captured antibody, human FcRn as analyte, pH 6.0, steady state affinity.
Assay [4] has as its target recombinant soluble human IL-6 receptor (SR344) (human) (UniProt P08887). The assay is described as follows: SPR (Biacore T100), antibody captured on anti-IgG (γ-chain specific) F(ab')2, SR344 as analyte, pH 7.4, 37° C.

As usually defined, the Kd is the free concentration of one partner at which half of the binding sites on the other are occupied at equilibrium, for simple one-to-one binding. What is called koff is the rate constant with which the complex falls apart. The term kon denotes a measure of how fast the partners come together.

recombinant soluble human IL-6 receptor (SR344) (human), sequence (P08887 20-344): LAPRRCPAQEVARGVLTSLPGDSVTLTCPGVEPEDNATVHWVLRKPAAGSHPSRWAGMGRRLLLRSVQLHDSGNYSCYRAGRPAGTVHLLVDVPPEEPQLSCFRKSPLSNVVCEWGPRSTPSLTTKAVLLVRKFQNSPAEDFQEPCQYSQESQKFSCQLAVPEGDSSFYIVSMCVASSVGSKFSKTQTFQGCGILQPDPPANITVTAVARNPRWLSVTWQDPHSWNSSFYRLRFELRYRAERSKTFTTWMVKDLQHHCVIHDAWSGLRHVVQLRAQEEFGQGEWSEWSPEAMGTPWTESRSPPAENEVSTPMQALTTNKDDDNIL
soluble human FcRn (complex of FcRn extracellular domain and β2-microglobulin) (human), sequence (P55899 24-290 limits assumed, chain 1 of 2): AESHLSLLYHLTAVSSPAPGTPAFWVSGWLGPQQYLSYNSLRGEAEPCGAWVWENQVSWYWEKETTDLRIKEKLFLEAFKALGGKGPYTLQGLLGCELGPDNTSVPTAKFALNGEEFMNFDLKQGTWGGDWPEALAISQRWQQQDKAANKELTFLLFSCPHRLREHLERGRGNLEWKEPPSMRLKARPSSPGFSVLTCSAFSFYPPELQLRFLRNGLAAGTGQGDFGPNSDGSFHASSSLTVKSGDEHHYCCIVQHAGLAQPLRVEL
soluble human FcRn (complex of FcRn extracellular domain and β2-microglobulin) (human), sequence (b2m, as listed by the source limits assumed, chain 2 of 2): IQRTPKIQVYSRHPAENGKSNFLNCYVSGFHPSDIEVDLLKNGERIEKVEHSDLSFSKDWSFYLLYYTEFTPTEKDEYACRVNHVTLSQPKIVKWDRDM

As to “WT-IgG1 (humanized PM-1 antibody, TOCILIZUMAB; humanized anti-human IL-6 receptor IgG1 antibody)”, the Kd in assay [1] came to 2070 nM; in assay [2], 1620 nM; in assay [3] it was 1420 nM; in assay [4], 2.7 nM. Besides, the dissociation rate constant (koff) in assay [4] came to 0.0011 s⁻¹. Besides, the kon in assay [4] amounted to 400000 M⁻¹ s⁻¹.
